Literature values in article PMC8019513.
Like-named read-outs stand apart in the source and are kept apart here.

Assays:
[1] = biological target: IL-8 (Homo sapiens) (UniProt P10145)
[2] = biological target: IL-8 (Homo sapiens) (UniProt P10145); remark: listed apart in the source

Sequence of IL-8 (Homo sapiens) (P10145 28-99): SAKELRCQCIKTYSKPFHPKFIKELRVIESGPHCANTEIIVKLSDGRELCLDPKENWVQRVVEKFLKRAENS
Sequence of CXCR2 (P25025 whole entry): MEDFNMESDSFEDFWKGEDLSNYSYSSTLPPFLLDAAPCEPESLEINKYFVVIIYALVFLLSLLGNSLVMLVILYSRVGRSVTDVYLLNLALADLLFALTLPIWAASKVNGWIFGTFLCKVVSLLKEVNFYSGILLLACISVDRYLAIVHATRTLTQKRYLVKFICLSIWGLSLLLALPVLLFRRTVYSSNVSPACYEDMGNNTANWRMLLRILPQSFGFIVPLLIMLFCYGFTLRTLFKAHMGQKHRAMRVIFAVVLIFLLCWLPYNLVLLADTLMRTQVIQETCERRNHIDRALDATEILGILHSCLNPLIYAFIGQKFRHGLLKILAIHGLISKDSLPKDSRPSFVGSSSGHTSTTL
Sequence of CXCR1 (P25024 whole entry): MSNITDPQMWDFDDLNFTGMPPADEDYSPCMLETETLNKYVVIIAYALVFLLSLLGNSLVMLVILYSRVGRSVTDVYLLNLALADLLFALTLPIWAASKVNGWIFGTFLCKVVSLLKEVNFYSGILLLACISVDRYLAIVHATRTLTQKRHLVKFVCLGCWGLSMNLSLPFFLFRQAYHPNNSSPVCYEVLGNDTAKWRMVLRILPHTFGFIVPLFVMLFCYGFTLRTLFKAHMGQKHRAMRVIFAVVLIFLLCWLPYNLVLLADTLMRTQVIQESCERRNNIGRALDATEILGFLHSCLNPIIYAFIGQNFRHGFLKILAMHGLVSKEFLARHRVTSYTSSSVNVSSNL

Q: Which Kd [1] does the source give for CXCR1 (from UniProt P25024) here?
A: The Kd was 4 nM.

Q: Which Kd [2] does the source give for CXCR2 (from UniProt P25025) here?
A: The Kd was 4 nM.
